Substitutions are numbered along the chain they refer to.
T1: human iRhom1 (Homo sapiens, UniProt Q96CC6)
T1 construct: expressed in transfected cells; host or cells: immortalized iRhom1/2-/- DKO mouse embryonic fibroblasts, pMSCV retroviral infection
T1 sequence (Q96CC6 1-855): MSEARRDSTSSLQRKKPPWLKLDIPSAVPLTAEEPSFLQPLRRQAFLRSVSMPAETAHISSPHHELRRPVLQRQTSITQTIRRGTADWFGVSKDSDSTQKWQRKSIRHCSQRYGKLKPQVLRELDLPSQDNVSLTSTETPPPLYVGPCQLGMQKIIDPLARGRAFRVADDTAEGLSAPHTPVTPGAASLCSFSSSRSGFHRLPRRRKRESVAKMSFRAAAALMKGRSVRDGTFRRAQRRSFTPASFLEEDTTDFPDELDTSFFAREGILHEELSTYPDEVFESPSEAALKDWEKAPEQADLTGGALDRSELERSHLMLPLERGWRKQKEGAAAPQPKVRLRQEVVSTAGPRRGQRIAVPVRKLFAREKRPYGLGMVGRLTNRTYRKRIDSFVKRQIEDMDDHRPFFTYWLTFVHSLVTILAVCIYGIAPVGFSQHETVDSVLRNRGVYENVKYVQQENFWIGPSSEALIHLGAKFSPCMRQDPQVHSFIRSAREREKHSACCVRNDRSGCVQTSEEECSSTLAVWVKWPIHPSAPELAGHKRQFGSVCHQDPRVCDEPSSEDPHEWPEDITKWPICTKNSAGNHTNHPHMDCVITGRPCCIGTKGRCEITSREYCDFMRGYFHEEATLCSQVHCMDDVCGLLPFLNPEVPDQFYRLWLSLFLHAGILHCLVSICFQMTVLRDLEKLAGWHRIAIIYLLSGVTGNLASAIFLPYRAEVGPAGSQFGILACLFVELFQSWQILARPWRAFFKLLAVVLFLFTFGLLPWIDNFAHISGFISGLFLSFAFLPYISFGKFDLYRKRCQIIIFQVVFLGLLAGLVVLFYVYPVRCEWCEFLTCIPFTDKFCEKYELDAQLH

B1: 16-B-03: humanized antibody binding human iRhom2; HCVD SEQ ID NO 1, LCVD SEQ ID NO 5 (antibody, V domains shown)
VH: QVTLRESGPALVKPTQTLTLTCTFSGFSLSTFALGVGWIRQPPGKALEWLAHIWWDDDKYYNPALKSRLTISKDTSKNQVVLTITNMDPVDTATYYCARITTYYYGMDYWGQGTLVTVSS
VL: EIVMTQSPDFQSVTPKEKVTITCRASQSIGNHLHWYQQKPDASPKLLIKYASQSISGVPSRFSGSGSGTDFTLTINSLEAEDAATYFCQQSYQWPLTFGQGTKLEIK
modifications: antibody sequences
B2: 16-B-05: humanized antibody binding human iRhom2; HCVD SEQ ID NO 9, LCVD SEQ ID NO 13 (antibody, V domains shown)
VH: B1 VH with D57E
VL: B1 VL with Q93N
modifications: antibody sequences
B3: 16-B-07: humanized antibody binding human iRhom2; HCVD SEQ ID NO 17, LCVD SEQ ID NO 21 (antibody, V domains shown)
VH: B1 VH with D57E
VL: B1 VL
modifications: antibody sequences
B4: 23-B-04: humanized antibody binding human iRhom2; HCVD SEQ ID NO 25, LCVD SEQ ID NO 29 (antibody, V domains shown)
VH: QVTLRESGPALVKPTQTLTLTCTFSGFSLSTFGMGVGWIRQPPGKALEWLAHIWWDDEKYYNSALKSRLTISKDTSKNQVVLTITNMDPVDTATYYCARISNYGSNYWYFNVWGQGTLVTVSS
VL: AIQLTQSPSSLSASVGDRVTITCRASSSVSYMYWYQQKPGKAPKVLIYDTSNLASGVPSRFSGSGSGTDYTLTISSLQPEDFATYYCQQWNAYPLTFGQGTKLEIK
modifications: antibody sequences
B5: 42-B-02: humanized antibody binding human iRhom2; HCVD SEQ ID NO 33, LCVD SEQ ID NO 37 (antibody, V domains shown)
VH: B4 VH with M34R, S101Q, N111D
VL: B4 VL with S28R, V29I, Y33F, A92S
modifications: antibody sequences
B6: 42-B-04: humanized antibody binding human iRhom2; HCVD SEQ ID NO 41, LCVD SEQ ID NO 45 (antibody, V domains shown)
VH: B4 VH with M34R, S101Q, N111D
VL: B4 VL with S28R, V29I, Y33F
modifications: antibody sequences

These molecules were tested against T1, human iRhom1 (assay: FACS binding specificity on MEF-DKO-hiR1-FL-WT-T7 cells). Conditions: antibody at 3 μg/ml.
Description: Due to the sequence homology of the human iRhom2 protein versus its closely related family member human iRhom1 (referring to the NCBI reference sequence NP_078875.4. for human iRhom2 and the NCBI reference sequence NP_071895.3 for human iRhom1, the amino acid sequence identity for the extracellular loops 1, 2, 3 and the C-terminal tail of human iRhom2 versus human iRhom1 are calculated as 67.4%, 100.00%, 80.00% and 63.64%, respectively), the binding specificity of the humanized antibodies 16-B-03, 16-B-05, 16-B-07, 23-B-04, 42-B-02, 42-B-04 of the invention for human iRhom2 versus human iRhom1 was assessed as a next step. For this purpose, iRhom1/2−/− DKO MEFs stably expressing a tagged form of human iRhom1 were generated.
In brief, on day 1, Phoenix-ECO cells (American Type Culture Collection, USA) were seeded on 6-well tissue culture plates (Greiner, Germany) in standard growth medium at 8×10^5 cells per well and kept overnight at 37° C., 5% CO2. On day 2, the medium was replaced by fresh medium supplemented with chloroquine (Sigma-Aldrich, USA) at a final concentration of 25 μM. Applying the calcium phosphate method, cells were transfected with 2 μg/ml of pMSCV-hiR1-FL-WT-T7 (SEQ ID NO 50) encoding human iRhom1 full length wild type C-terminally tagged with 3 consecutive copies of the T7 epitope, and were kept at 37° C., 5% CO2. After 7 hours, the transfections were stopped by replacing cell supernatants with standard growth medium lacking chloroquine, and cells were incubated at 37° C., 5% CO2 to allow virus production overnight. In parallel, immortalized iRhom1/2−/− DKO MEFs as target cells for retroviral infection were seeded on 6-well tissue culture plates (Greiner, Germany) in standard growth medium at 1×10^5 cells per well and were also kept overnight at 37° C., 5% CO2. On day 3, the supernatants of Phoenix-ECO cells releasing pMSCV-hiR1-FL-WT-T7 ecotrophic virus were collected, filtered with 0.45 μm CA filters, and supplemented with 4 μg/ml of polybrene (Sigma-Aldrich, USA). Upon removal of medium from the immortalized iRhom1/2−/− DKO MEFs, these supernatants were added to the target cells for 4 hours at 37° C., 5% CO2 for first infection. Simultaneously, Phoenix-ECO cells were re-incubated with fresh medium, which, after another 4 hours, was filtered and used for the second infection of the respective target cell populations, again in the presence of 4 μg/ml of polybrene. Likewise, a third, but overnight infection cycle was performed. On day 4, virus containing cell supernatants were replaced by fresh standard growth medium. From day 5 onwards, cells were grown in the presence of 2 mg/ml of geneticin (G418, Thermo Fisher Scientific, USA) for the selection of immortalized MEF-DKO-hiR1-FL-WT-T7 cells stably expressing human iRhom1 full length wild type C-terminally tagged with 3 consecutive copies of the T7 epitope. Upon propagation, cells were stocked for future usage.
In brief, in addition to immortalized MEF-DKO-EV control cells and MEF-DKO-hiR2-FL-WT-T7 cells (as already described in example 3), MEF-DKO-hiR1-FL-WT-T7 cells were harvested with 10 mM EDTA in PBS, washed and resuspended in FACS buffer (PBS, 3% FBS, 0.05% sodium azide), and seeded in Nunc U-bottom 96-well plates (Thermo Fisher Scientific, USA) at approximately 3×10^5 cells per well. To pellet cells and remove supernatants, the plates were centrifuged at 1,500 rpm and 4° C. for 3 minutes. For primary staining, cells were resuspended in 100 μl per well of either FACS buffer alone (controls), mouse monoclonal anti-T7 IgG (Merck Millipore, USA) at 3 μg/ml FACS buffer or the humanized antibodies 16-B-03, 16-B-05, 16-B-07, 23-B-04, 42-B-02, 42-B-04 of the invention also at 3 μg/ml FACS buffer and incubated on ice for 1 hour. Afterwards, plates were centrifuged at 1,500 rpm and 4° C. for 3 minutes and washed twice with 200 μl per well of FACS buffer. […]
With B1 the “binding to human iRhom1 on MEF-DKO-hiR1-FL-WT-T7 cells” value (“binding to human iRhom1” below) was “no significant binding”. B2 was tested, and the “binding to human iRhom1” value was “none of these humanized antibodies of the invention recognizes human iRhom1”. B3 was tested, and the “binding to human iRhom1” value was “none of these humanized antibodies of the invention recognizes human iRhom1”. B4 was tested, and the “binding to human iRhom1” value was “none of these humanized antibodies of the invention recognizes human iRhom1”. B5 was tested, and the “binding to human iRhom1” value was “none of these humanized antibodies of the invention recognizes human iRhom1”. B6 was tested, and the “binding to human iRhom1” value was “none of these humanized antibodies of the invention recognizes human iRhom1”.

Source: patent US12404345B2, “Humanized antibodies against iRHOM2” (SCIRHOM GMBH, priority 2021, dated 2025)
